Assay results published in doi:10.1101/2022.10.28.514188 (bioRxiv, 2022).
Values joined by “and” are separate entries in the source; they are usually repeats but may differ in a detail not shown here. Identical values can stand only once.

Assays:
[1] = target: CLPB^isoform1 (isoform-1 of CLPB) (human); assay: negative-stain EM + cryo-EM 2D classification
[2] = target: CLPB-NBD (NBD-only variant, N-terminal ANK domain truncated) (human) (UniProt Q9H078); assay: cryo-EM 2D classification
CLPB-NBD^E425Q (human) = CLPB-NBD^E425Q (human) (UniProt Q9H078); assay: cryo-EM structure
SEC = target: the molecule itself; assay: SEC
[3] = target: the molecule itself; assay: cryo-EM 2D classification
cryo-EM structure [4] = target: the molecule itself; assay: cryo-EM structure
[5] = target: the molecule itself; assay: SEC + other: negative-stain EM
cryo-EM structure [6] = target: the molecule itself; assay: cryo-EM structure; remark: listed apart in the source

## CLPB^isoform1 (isoform-1 of CLPB) (enzyme)
[1]
  stoichiometry N: 14

## CLPB-NBD (NBD-only variant, N-terminal ANK domain truncated) (from UniProt Q9H078-2 1-677) (domain or fragment)
[2]
  stoichiometry N: 6 and 7

## CLPB-NBD^E425Q (from UniProt Q9H078-2 1-677) (domain or fragment)
CLPB-NBD^E425Q (human)
  stoichiometry N: 6 and 7 and 9

B1: CLPB^Δ201-232 (insertion between AM2 and AM3 deleted) (enzyme)
chain: YSKSPSNKDAALLEAARANNMQEVSRLLSEGADVNAKHRLGWTALMVAAINRNNSVVQVLLAAGADPNLGDDFSSFKGCTALHYAVLADDYRTVKELLDGGANPLQRNEMGHTPLDYAREGEVMKLLRTSEAKYQEKQRKREAEERRRFPLEQRLKEHIIGQESAIATVGAAIRRKENGWYDEEHPLVFLFLGSSGIGKTELAKQTAKYMHKDAKKGFIRLDMSEFQERHEVAKFIGSPPGYVGHEEGGQLTKKLKQCPNAVVLFDEVDKAHPDVLTIMLQLFDEGRLTDGKGKTIDCKDAIFIMTSNVASDEIAQHALQLRQEALEMSRNRIAENLGDVQISDKITISKNFKENVIRPILKAHFRRDEFLGRINEIVYFLPFCHSELIQLVNKELNFWAKRAKQRHNITLLWDREVADVLVDGYNVHYGARSIKHEVERRVVNQLAAAYEQDLLPGGCTLRITVEDSDKQLLKSPELPSPQAEKRLPKLRLEIIDKDSKTRRLDIRAPLHPEKVCNTI
SEC
  binding result: binds

B2: CLPB-N127 (human CLPB isoform 2 starting from the PARL cleavage site), wild type (enzyme)
chain: YSKSPSNKDAALLEAARANNMQEVSRLLSEGADVNAKHRLGWTALMVAAINRNNSVVQVLLAAGADPNLGDDFSSVYKTAKEQGIHSLEVLITREDDFNNRLNNRASFKGCTALHYAVLADDYRTVKELLDGGANPLQRNEMGHTPLDYAREGEVMKLLRTSEAKYQEKQRKREAEERRRFPLEQRLKEHIIGQESAIATVGAAIRRKENGWYDEEHPLVFLFLGSSGIGKTELAKQTAKYMHKDAKKGFIRLDMSEFQERHEVAKFIGSPPGYVGHEEGGQLTKKLKQCPNAVVLFDEVDKAHPDVLTIMLQLFDEGRLTDGKGKTIDCKDAIFIMTSNVASDEIAQHALQLRQEALEMSRNRIAENLGDVQISDKITISKNFKENVIRPILKAHFRRDEFLGRINEIVYFLPFCHSELIQLVNKELNFWAKRAKQRHNITLLWDREVADVLVDGYNVHYGARSIKHEVERRVVNQLAAAYEQDLLPGGCTLRITVEDSDKQLLKSPELPSPQAEKRLPKLRLEIIDKDSKTRRLDIRAPLHPEKVCNTI
[3]
  stoichiometry N: 12
cryo-EM structure [4]
  stoichiometry N: 14

B3: CLPB^R178E (enzyme)
chain: YSKSPSNKDAALLEAARANNMQEVSRLLSEGADVNAKHRLGWTALMVAAINENNSVVQVLLAAGADPNLGDDFSSVYKTAKEQGIHSLEVLITREDDFNNRLNNRASFKGCTALHYAVLADDYRTVKELLDGGANPLQRNEMGHTPLDYAREGEVMKLLRTSEAKYQEKQRKREAEERRRFPLEQRLKEHIIGQESAIATVGAAIRRKENGWYDEEHPLVFLFLGSSGIGKTELAKQTAKYMHKDAKKGFIRLDMSEFQERHEVAKFIGSPPGYVGHEEGGQLTKKLKQCPNAVVLFDEVDKAHPDVLTIMLQLFDEGRLTDGKGKTIDCKDAIFIMTSNVASDEIAQHALQLRQEALEMSRNRIAENLGDVQISDKITISKNFKENVIRPILKAHFRRDEFLGRINEIVYFLPFCHSELIQLVNKELNFWAKRAKQRHNITLLWDREVADVLVDGYNVHYGARSIKHEVERRVVNQLAAAYEQDLLPGGCTLRITVEDSDKQLLKSPELPSPQAEKRLPKLRLEIIDKDSKTRRLDIRAPLHPEKVCNTI
[5]
  binding result: binds

B4: CLPB^E425Q (Walker B mutant of CLPB-N127, isoform 2) (enzyme)
chain: YSKSPSNKDAALLEAARANNMQEVSRLLSEGADVNAKHRLGWTALMVAAINRNNSVVQVLLAAGADPNLGDDFSSVYKTAKEQGIHSLEVLITREDDFNNRLNNRASFKGCTALHYAVLADDYRTVKELLDGGANPLQRNEMGHTPLDYAREGEVMKLLRTSEAKYQEKQRKREAEERRRFPLEQRLKEHIIGQESAIATVGAAIRRKENGWYDEEHPLVFLFLGSSGIGKTELAKQTAKYMHKDAKKGFIRLDMSEFQERHEVAKFIGSPPGYVGHEEGGQLTKKLKQCPNAVVLFDQVDKAHPDVLTIMLQLFDEGRLTDGKGKTIDCKDAIFIMTSNVASDEIAQHALQLRQEALEMSRNRIAENLGDVQISDKITISKNFKENVIRPILKAHFRRDEFLGRINEIVYFLPFCHSELIQLVNKELNFWAKRAKQRHNITLLWDREVADVLVDGYNVHYGARSIKHEVERRVVNQLAAAYEQDLLPGGCTLRITVEDSDKQLLKSPELPSPQAEKRLPKLRLEIIDKDSKTRRLDIRAPLHPEKVCNTI
cryo-EM structure [6]
  stoichiometry N: 12

B5: CLPB^R227E (enzyme)
chain: YSKSPSNKDAALLEAARANNMQEVSRLLSEGADVNAKHRLGWTALMVAAINRNNSVVQVLLAAGADPNLGDDFSSVYKTAKEQGIHSLEVLITREDDFNNELNNRASFKGCTALHYAVLADDYRTVKELLDGGANPLQRNEMGHTPLDYAREGEVMKLLRTSEAKYQEKQRKREAEERRRFPLEQRLKEHIIGQESAIATVGAAIRRKENGWYDEEHPLVFLFLGSSGIGKTELAKQTAKYMHKDAKKGFIRLDMSEFQERHEVAKFIGSPPGYVGHEEGGQLTKKLKQCPNAVVLFDEVDKAHPDVLTIMLQLFDEGRLTDGKGKTIDCKDAIFIMTSNVASDEIAQHALQLRQEALEMSRNRIAENLGDVQISDKITISKNFKENVIRPILKAHFRRDEFLGRINEIVYFLPFCHSELIQLVNKELNFWAKRAKQRHNITLLWDREVADVLVDGYNVHYGARSIKHEVERRVVNQLAAAYEQDLLPGGCTLRITVEDSDKQLLKSPELPSPQAEKRLPKLRLEIIDKDSKTRRLDIRAPLHPEKVCNTI
[5]
  binding result: binds
